{"source": "the nanobody polyreactivity screen of Harvey et al. (2022)"}
{"test": "yeast display, Sf9 membrane polyspecificity reagent, FACS + sequencing; frameworks hold sequencing errors", "outline": "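Nanobodies from a synthetic yeast display library (Saccharomyces cerevisiae BJ5465), induced 36–48 hours with galactose, were stained 1 hour at 4 °C with 10% biotinylated, detergent-solubilized Sf9 membrane reagent, enriched on streptavidin microbeads, then FACS-sorted. Anti-HA (expression) and streptavidin (reagent binding) fluorescence set low and high (top ~1%) gates. Polyreactivity labels come from the gate of origin. Genes were colony-PCR amplified, MiSeq 2 × 250 sequenced and filtered by CDR length.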"}
{"sequence": "QVQLAESGGGLVQAGGSLRLSCGASGSTFVAYALGWYRQAPGKEREFVAAISRSGGSTHYADSVKGRFTISRDNAKNTVYLQMNRLNPEDTAVYYCAARVYGYGGRTYEYWGQGTQVTVSS", "polyreactivity (PSR sort gate)": "high polyreactivity"}
{"sequence": "QVQLVESGGGLVHAGGRLRLSFAASGSIFAVYAMGWYRQAPGKEREFVARIAWGGGRTYYADSVKGRFTISRDNAQNTVYLQMNSLKPEDTAVYYCNAERAGTYRYDYWGQGPQVTVSS", "polyreactivity (PSR sort gate)": "high polyreactivity"}
{"sequence": "QVQLVESAAGLVQAGASLRLSCAPSGRIYRYYAMGWYRQAPGKDRELVAAISSSGGSTYYADSVKGRFSISRDNAKNTVYLQKNSLKPEDTAVYYCAARKASGRFGYWGQGTQVTVSS", "polyreactivity (PSR sort gate)": "high polyreactivity"}
{"sequence": "QVQLVESGGGLVQAGGSLRLSCAASGRIFKNYAMGWYRQAPGKERELVAAITWSVGSTYYADSVKGRFTISRDNAKNTVYLQMNSLKPEDTAVYYCAARRSDFRGAKDGYYYWGQGTQVTVSS", "polyreactivity (PSR sort gate)": "low polyreactivity"}
{"sequence": "QVQLQESGGGLVQAGGSLRLSCTASGTIYSTSAMGWYRQAPGKDREFVADIASGASTNYADSVKGRFTISRDNAKNTVYLQMNSLKPEDTAVYYCAAKRIRRRYKYDYWGQGTQVTVSS", "polyreactivity (PSR sort gate)": "high polyreactivity"}
{"sequence": "QVQLVESGGGLVQAGGSLRLSSAASGRIFSDYDMGWYRQAHGKERELVAAITSGGITNYADSVKGRFTISRDNAKNTVYLQMNSLKPEDTAVYYCATGRRRYYFREYYYWGQGTQVTVSS", "polyreactivity (PSR sort gate)": "high polyreactivity"}
{"sequence": "QVQLVESGGGLVQAGGSLRLSCAASGFTFGWYAMGWYRPAPGKERELVAAISSTGGRTYYADSVKGRFTISRDNAKNTVYLQMNSLKPEDTAVYYCAAAYSYGTEYGYWGQGTQVTVSS", "polyreactivity (PSR sort gate)": "high polyreactivity"}
{"sequence": "QDQLVESGGGLVQAGGSLRLSCAASGRIFIVYAMGWYRQAPGKERELDAAISRNGGRTYYADSVKGRFTISRDNAKNSVDLQMNSLKPEDTSVYYCNSVALYPYTTYDYWGQGSQVTVSS", "polyreactivity (PSR sort gate)": "high polyreactivity"}
{"sequence": "QVQLVETGGGLVQAGGSLRLSCAASGSTFYAYVMGWYRQAPGKERELVAAITSAGSTYYADSVKGRFTISLDNAKNTVYLQMNSLKPEDTAVYYCAADAYTESAYYKYDYWGQGTQVTVSS", "polyreactivity (PSR sort gate)": "low polyreactivity"}
{"sequence": "QVQLVESGGGLVQAGGSLRLSCAASGSIFYFYTMGWYRQAPGKEREFVAAINGIGGSTYYADSVKGRFTISRDNAKNTVYLQMNSLKPEDTAVYYCAADAPWFKRNARKYNFWGQGTQVTVSS", "polyreactivity (PSR sort gate)": "low polyreactivity"}
{"sequence": "QVQLVESGGGLVQAGGSLRLSCAASGRTFRYNRMGWYRQAPGKERELVAAITGGGSTYYADSVKGRFTISRDNAKNTVYLQMNSLKPEDTPVYYCAKRRWYRYDYWGQGTQVTVSS", "polyreactivity (PSR sort gate)": "high polyreactivity"}
{"sequence": "QVQLVESGGGLVQAGGSLRLSCAASGYISYYYAMGWYRQAPGKEREFVAGISWSGGSTYYADPVKGRFTISRDNAKNTVYLQMNSLKTEDTAVYYCAARLSRWWPPTRVHYTDRYYWGQGTQVTVSS", "polyreactivity (PSR sort gate)": "high polyreactivity"}
{"sequence": "QVQLVESGGGLVQAGCSVRLSCAASGSFFVLNSMGWYRQAPGKERELVAAIDESGGGTYYADSVKGRFTISRDNAKNTVYLQMNSLKPEDTAVYYCAADTLAPRAYDYWGQGTQVTVSS", "polyreactivity (PSR sort gate)": "low polyreactivity"}
{"sequence": "QVQLVESGGGLVQAGGSLRLSCAASGFTFYPNAMGWYRQAPGKEWELVAAISRSGSSTYYADSVKGRFTISRDNAKNTVYLQMNSVKPEDTAVYDCNRYGRQYDFYYWGQGTQVTVSS", "polyreactivity (PSR sort gate)": "high polyreactivity"}
{"sequence": "QVQLVESGGGLVQAGGSLRLSCAPSGLIFASYAMGWYRQAPGKERELVAAITSSGGSTYYADSVKGRFTISRDNAKNTVYLQMNSLKPEDTAVYYCAADIYTYNLFYHWRWLDYNYWGQGTQVTVSS", "polyreactivity (PSR sort gate)": "high polyreactivity"}
{"sequence": "QVQLVETGGGLVQAGGSLRLSCDASGRIFGGYAMGWYRKAPGKERELVAAISASGGRTYYADSVKGRFTISRDNAKNTVYLQMNSLKPEDNAVYYCAASFRRTSLRWLGEYWGQGTQVTVSS", "polyreactivity (PSR sort gate)": "high polyreactivity"}
{"sequence": "KVQLVESGGGLVQAGGSLRLSCAASGSTFSLYAMGWYRQAPGKERELVASIRWSGGRTYYADSVKGRFTISRDNAKNTVYLQMKSLKPEDTAVYYCAAAWRYGYGYWGQGTQVTVSS", "polyreactivity (PSR sort gate)": "high polyreactivity"}
{"sequence": "QVQLVESGGGLVQAGGSLRLSCAASGFTFYGYTMGWYRQAPGKEREVVAAITSDGDTNYADSVKGRFTISRDNAKNNVYLQMNSLIPEDTAVYYCNADPGFFFYWWTGDYWGQGTQVTVSS", "polyreactivity (PSR sort gate)": "low polyreactivity"}
{"sequence": "QVQLVESGGGLVQAGGSLRLSCAASGSIFRYVMGWYRQAPGKERELVAAISIRGGSTYYADSVKGRFTISRDNAKNTVYLQMNSLKPEDTAVYYCAADRYRLGVKYDYWGQGNQVTVSS", "polyreactivity (PSR sort gate)": "high polyreactivity"}
{"sequence": "QVQLVESGGGLVQAGGSLRLSCAASGFTFSKYVMGWYRQAPGKERELVAAITTSGGSTYYADSVKGRFTISRDNAKNTVYLQMNSLKPEDTAVYYCNARSLHTSEGDYWGQGTQVTVSS", "polyreactivity (PSR sort gate)": "low polyreactivity"}
{"sequence": "QGQLVESGGGLVQAGGRLRLSCAASGSTLWRYAMGWYRQAPRKERELVAGISRGGGSTYYADSVKGRFTISRDNAKNTVYLQMYSLKPEDTGVYYCATPVNQVRGAFDYWGQGTQVSVSS", "polyreactivity (PSR sort gate)": "low polyreactivity"}
{"sequence": "QVQLVESGGGLVQAGGSLRLSCAASGSISPQNVMGWYRQAPGKERELVAAITWTGTSTYADSVKGRFTISRDNAKNTVYLQMNSLKPEDTAVYYCAARYYAPRWFRYDYWGQGTQVTVSS", "polyreactivity (PSR sort gate)": "low polyreactivity"}
{"sequence": "QVQLVESGGGLVQAGGSLRLSCAASGRIFNNNAMGWYRPAPGKERELVASITRRGGRTYYADSVKGRFTISRDNAKNTVYLQMNSLKPEDTAVYYCNALAGPPEFVRNYYWGQGTQVTVSS", "polyreactivity (PSR sort gate)": "high polyreactivity"}
{"sequence": "QVQLVESGGGLVQAGGSLRLSCAASGFTFRAYAMGWYRQAPGKERELVAAINISGGSTYYADSVKGRFTISRDNAKNTVYLQMNSLKPEDTAVYYCAADWPEDWYTEYGYWGQGTQVTVSS", "polyreactivity (PSR sort gate)": "low polyreactivity"}
{"sequence": "QVHLVESGGGLVQAGGSLRLSCAASGKIFRSYMGWYRQAPGKERELVASISRRGGSTYYADSEKGRFTISRDNAKNTVTLQMISLKPEDTAVYYCANVVNYPSARYCYWGQGTQVTVSS", "polyreactivity (PSR sort gate)": "high polyreactivity"}
{"sequence": "QVQLVESGGGLVQAGGSLRLSCAASGSTFGNYAMGWYRQAPGKERELVAVITSAGSTYYADSVKGRFTISRDNAKNTVYLQMNSLKPDDTAVYYCNTGKHVRYYYWGQGTQVTVSS", "polyreactivity (PSR sort gate)": "low polyreactivity"}
{"sequence": "QVQLVESGGGLVQAGGSLRLSCAASGRTFRYYAMGWYRQAPAKERELVAAINWNGGRTYYADSVKGRFTISRDNAKNTVYLQMNSLKPEDTAVYYCAAYHYRSPVTGDYWGQGTQVTVSS", "polyreactivity (PSR sort gate)": "high polyreactivity"}
{"sequence": "QVQLVESGGGLVQAGGSLRLSCAASGIILDRNAMGWYRQAPGKERELDAAINSIGGSTYYADSVKGRFTISRDNAKNTVYLQMNSLKPEDTAVYYCAAPSTSSYYWGQGTQVTVSS", "polyreactivity (PSR sort gate)": "low polyreactivity"}
{"sequence": "QVQLVESGGGLVQAGGSLRLSCAASGSIFRYYAMGWSRQAPGKERELVAAISRRGSSTYYADSVKGRFTISRDNAKKTVYLQMNSLKPEDTAVYYCAAGDFKQYDYWGQGTQVTVSS", "polyreactivity (PSR sort gate)": "high polyreactivity"}
{"sequence": "QVQLVESGGGLFQAGGSLRLSCAATGSTFSGYAMGWYRQATGKDRELVAAIASTGRTYYADSVKGRFTISRDNAKKTVYLQMNSLKPEDTAVYYCAAKRYTVYVHKYEYWGQGTKVTVSS", "polyreactivity (PSR sort gate)": "high polyreactivity"}
{"sequence": "QFQLEESGGGLVQAGGSLRLSCAASGSIFKGYTMGWYRQAPRKVREFVASMSRRGGSTYYADSVKGRFTISRDYAKNTVYLQMNSLKPEDTAVYYCAKDYGKAYDDWGQGTQVTVSS", "polyreactivity (PSR sort gate)": "high polyreactivity"}
{"sequence": "QVQLVESGGGLVQAGGSLRLSCAASGYIFTRNAMGWYRQAAGKERELVATISSRGGRTYYADSVKGRFTISRDNAKNTVYLQMNSLKPEDTAVYYCAATPWYRTRTYDYWGQGSQVTVSS", "polyreactivity (PSR sort gate)": "high polyreactivity"}
{"sequence": "QVQLVESGGGLVQAGGSLRLSCAASGRTFVWYAMGWYRQAPGKERELVAAITLSGGSTYYADSVKGRFTISRDNAKNTVYLQMNSLKPEDTAVYYCAADGTYRPEDYDYWGQGTQVTVSS", "polyreactivity (PSR sort gate)": "low polyreactivity"}
{"sequence": "QLQLVESGRGLVQAGGSLRLSCAASGIIFYYNAMGWYRQAPGKERELVARITWRAGSTYYADSVKGRFTISRDNAKNTVYLQMNSLKPEDTAVYYCAARFTTTGPRGYYYWGQGTQVTVSS", "polyreactivity (PSR sort gate)": "high polyreactivity"}
{"sequence": "QVQLVESGGGLVQAGGSLRLSCAASGRIFYWYAMAWYRQAPGKERELVAAITSGGSTYYADSVKGRFTISRDNAKNTVYLQMNSLKPEDTAVYYCAADLYYWGDYDYWGQGTQVTVSS", "polyreactivity (PSR sort gate)": "low polyreactivity"}
{"sequence": "QVQLVESGGGLVQAGGSLRLSCAASGITFKWNDMGWYRQAPGKEREFVAAITGSTGSTFYADSVKGRFTISRDNAKNTVYLQMISLKPEDTAVYYCAAGPWFYYWGQGTQVTVSS", "polyreactivity (PSR sort gate)": "low polyreactivity"}
{"sequence": "QVQLVESGGGLVQAGGSLRLSCAASGSTFVTNGMGWYRQAPGKERELVAAISGNVGSTYYADSVKGRFTISRDNAKNTVYLQMNSLKPEDTAVYYCAARQYRPSDYDYWGQGTQVTVSS", "polyreactivity (PSR sort gate)": "low polyreactivity"}
{"sequence": "QDQHVESGGGLVQAGGSLRLSCAASGILYNYYAMGWYRQAHGKERELVAAISASGGSTYYADSVKGRFTISRDNAKNTVYLQMYSLKPEDTAVYYCNAAVLYRQYGRGDYLGQGTQVTVSS", "polyreactivity (PSR sort gate)": "low polyreactivity"}
{"sequence": "QVQLVESGGGLVQAGGSLRLSCAASGNTFTFYAMGWYRQAPGKERELVASITGRGGSTYYADSVKGRFTISRDNAKNTVYLQMNSLKPEDTAVYYCNADLPAYGLQGDDYWGQGTQVTVSS", "polyreactivity (PSR sort gate)": "low polyreactivity"}
{"sequence": "QVQLVESGGGLVQAGGSLRLSCAASGYTFRYNAMGWYRQAPGKERELVASITFSGGRTFYADSVKGRFTISRDNAKNTVYLQMNSLKPEDTAVYYCAAVRWGRRSGGLVAEYDYWGQGTQVTVSS", "polyreactivity (PSR sort gate)": "high polyreactivity"}
{"sequence": "QVQLVESGGGLVQAGGSLRLSCAASGSTILINAMGWYRQAPGKERELVAAISRDGSTNYADSVKGRFTISRDNAKNTVYLQMNSLKPEDTAVYYCAAVPGISVGRQPGYDYDYWGQGTQVTVSS", "polyreactivity (PSR sort gate)": "low polyreactivity"}
{"sequence": "QVQLVESGGGLVQAGGSLRLSCAASGSTFVYMGGYRQAPGKEREFVAITFSGGRTYADSVKGRFTISRDNAKNTVYLQMNSLKPEDTAVYYCNKGDDFYSTYSYDYWGQGTQVTVSS", "polyreactivity (PSR sort gate)": "low polyreactivity"}
{"sequence": "QVQLVESGGGLVQAGGSLRLSCAASGRIFARNAMGWYIQAPGKEREFVAAITHSGGNTYYADSVKGRFTISRDNAKKTVYLQMNSLKPEDTAVYYCAKEYRSTKYDYWGQGTQVTVSS", "polyreactivity (PSR sort gate)": "low polyreactivity"}
